Drawing on article PMC12494034, this text covers stoichiometry N for 13 substances.

Values joined by “and” are separate entries in the source; they are usually repeats but may differ in a detail not shown here. Equal entries are not always repeated.

What all share (assay): cryo-EM structure; single-particle analysis of purified HFTV1 virions (DNA-filled and empty particles sorted by 2D classification) in 18% SW buffer (2.47 M NaCl, 89 mM MgCl2, 85 mM MgSO4, 56 mM KCl, 3 mM CaCl2, 48 mM tris-HCl, pH 7.2); focused refinements of head, turrets, portal, tail, baseplate and tail fibers
Assay [1] concerns the target tape measure protein gp40 of HFTV1 (Haloferax tailed virus 1 (HFTV1)).
The target in assay [2] is tail fiber protein gp42 of HFTV1 (Haloferax tailed virus 1 (HFTV1)).
The target of assay [3] is head-tail connector gp26 of HFTV1 (Haloferax tailed virus 1 (HFTV1)).
The target of assay [4] is turret base protein gp30 of HFTV1 (Haloferax tailed virus 1 (HFTV1)).
The target of assay [5] is portal protein gp13 of HFTV1 (Haloferax tailed virus 1 (HFTV1)).
Assay [6] has as its target baseplate-tail connector gp41 of HFTV1 (Haloferax tailed virus 1 (HFTV1)).
Assay [7] concerns the target major capsid protein gp19 of Haloferax tailed virus 1 (HFTV1) (Haloferax tailed virus 1 (HFTV1)).
In assay [8] the target is tail tube protein gp35 of HFTV1 (Haloferax tailed virus 1 (HFTV1)).
The target of assay [9] is baseplate hub gp44 of HFTV1 (Haloferax tailed virus 1 (HFTV1)).
Assay [10] addresses tail completion protein gp29 of HFTV1 (Haloferax tailed virus 1 (HFTV1)).
Assay [11] concerns the target capsid stabilization protein gp18 of HFTV1 (Haloferax tailed virus 1 (HFTV1)).
For assay [12], the target named is turret head protein gp31 of HFTV1 (Haloferax tailed virus 1 (HFTV1)).
Assay [13] has as its target portal interface protein gp21 of HFTV1 (Haloferax tailed virus 1 (HFTV1)).

As a reminder, the stoichiometry N is the number of molecules, sites or subunits per partner or assembly. In turn, “tape measure protein gp40 of HFTV1 (natural protein)” gave a stoichiometry N in assay [1] of 6.

As to “tail fiber protein gp42 of HFTV1 (natural protein)”, in assay [2], the stoichiometry N is 3.

“head-tail connector gp26 of HFTV1 (natural protein)”: the stoichiometry N in assay [3] amounted to 12.

In assay [4], “turret base protein gp30 of HFTV1 (from UniProt A0A410N6V5 1-115) (natural protein)” gave a stoichiometry N of 6.

For “portal protein gp13 of HFTV1 (natural protein)”, the stoichiometry N in [5] turned out to be 12.

“baseplate-tail connector gp41 of HFTV1 (natural protein)”: the stoichiometry N in assay [6] amounted to 3.

As for “major capsid protein gp19 of Haloferax tailed virus 1 (HFTV1) (natural protein)”, the stoichiometry N in assay [7] is 5 and 6.

Substance “tail tube protein gp35 of HFTV1 (natural protein)” came in with a stoichiometry N in assay [8] of 6.

The substance “baseplate hub gp44 of HFTV1 (natural protein)” gave a stoichiometry N in assay [9] of 3.

Turning to “tail completion protein gp29 of HFTV1 (natural protein)”, the stoichiometry N in [10] came to 6.

As to “capsid stabilization protein gp18 of HFTV1 (natural protein)”, in assay [11], the stoichiometry N came out at 3.

For the substance “turret head protein gp31 of HFTV1 (natural protein)”, the stoichiometry N in assay [12] came to 3.

In [13], “portal interface protein gp21 of HFTV1 (natural protein)” returned a stoichiometry N of 5.
